{
  "source": "FireProtDB (doi:10.1093/protein/12.8.663)",
  "parents": {"B1": {"name": "Lysozyme C, P61626 (parent)", "chain": "MKALIVLGLVLLSVTVQGKVFERCELARTLKRLGMDGYRGISLANWMCLAKWESGYNTRATNYNAGDRSTDYGIFQINSRYWCNDGKTPGAVNACHLSCSALLQDNIADAVACAKRVVRDPQGIRAWVAWRNRCQNRDVRQYVQGCGV"}},
  "note": "“And” between values parts separate entries of the source, which are not always exact repeats. Equal values may be shown once.",
  "data": [
    {"variants_of": "B1", "details": "Homo sapiens; pH 2.59; Thermal; DSC; glycine 0.05 M; reversible: yes; structure 1LZ1; whole UniProt chain shown", "units": {"Tm": "°C", "unfolding enthalpy (calorimetric)": "kcal/mol", "unfolding enthalpy (van 't Hoff)": "kcal/mol"}, "values": [
      {"variant": "MKALIVLGLVLLSVTVQGKVFERCELARTLKRLGMDGYRGISLANWMCLAKWESGYNTRATNYNAGDRSTDYGIFGINSRYWCNDGKTPGAVNACHLSCSALLQDNIADAVACAKRVVRDPQGIRAWVAWRNRCQNRDVRQYVQGCGV", "Tm": 68.3, "unfolding enthalpy (calorimetric)": 113, "unfolding enthalpy (van 't Hoff)": 121}
    ]},
    {"variants_of": "B1", "details": "Homo sapiens; pH 2.7; 64.9 °C; Thermal; DSC; glycine 0.05 M; reversible: yes; structure 1LZ1; whole UniProt chain shown", "units": {"ddG of mutation (higher = less stable)": "kcal/mol"}, "values": [
      {"variant": "MKALIVLGLVLLSVTVQGKVFERCELARTLKRLGMDGYRGISLANWMCLAKWESGYNTRATNYNAGDRSTDYGIFGINSRYWCNDGKTPGAVNACHLSCSALLQDNIADAVACAKRVVRDPQGIRAWVAWRNRCQNRDVRQYVQGCGV", "ddG of mutation (higher = less stable)": -1.86},
      {"variant": "MKALIVLGLVLLSVTVQGKVFERCELARTLKRLGMDGYRGISLANWMCLLKWESGYNTRATNYNAGDRSTDYGIFQINSRYWCNDGKTPGAVNACHLSCSALLQDNIADAVACAKRVVRDPQGIRAWVAWRNRCQNRDVRQYVQGCGV", "ddG of mutation (higher = less stable)": 0.1},
      {"variant": "MKALIVLGLVLLSVTVQGKVFERCELARTLKRLGMDGYRGISLANWMCLAKWESGYNTRATNYNAGDRSTDYGIFQINSRYWCNDGKTPGASNACHLSCSALLQDNIADAVACAKRVVRDPQGIRAWVAWRNRCQNRDVRQYVQGCGV", "ddG of mutation (higher = less stable)": 0.38},
      {"variant": "MKALIVLGLVLLSVTVQGKVFERCELARTLKRLGMDGYRGISLANWMCLAKWESGYNTRATNYNAGDRSTDYGIFQINSRYWCNDGKTPGAVNACHLSCSALLQDNIADAVACAKRVFRDPQGIRAWVAWRNRCQNRDVRQYVQGCGV", "ddG of mutation (higher = less stable)": 1.65}
    ]},
    {"variants_of": "B1", "details": "Homo sapiens; pH 2.7; Thermal; DSC; glycine 0.05 M; reversible: yes; structure 1LZ1; whole UniProt chain shown", "units": {"change of melting temperature, mutant - wild type (higher = more stable)": "°C", "heat capacity change of unfolding": "kcal/mol/K", "unfolding enthalpy (calorimetric)": "kcal/mol"}, "values": [
      {"variant": "MKALIVLGLVLLSVTVQGKVFERCELARTLKRLGMDGYRGISLANWMCLAKWESGYNTRATNYNAGDRSTDYGIFGINSRYWCNDGKTPGAVNACHLSCSALLQDNIADAVACAKRVVRDPQGIRAWVAWRNRCQNRDVRQYVQGCGV", "change of melting temperature, mutant - wild type (higher = more stable)": 5.7, "heat capacity change of unfolding": 1.34, "unfolding enthalpy (calorimetric)": 109},
      {"variant": "MKALIVLGLVLLSVTVQGKVFERCELARTLKRLGMDGYRGISLANWMCLLKWESGYNTRATNYNAGDRSTDYGIFQINSRYWCNDGKTPGAVNACHLSCSALLQDNIADAVACAKRVVRDPQGIRAWVAWRNRCQNRDVRQYVQGCGV", "Tm": "64.6 °C and 64.9 °C", "change of melting temperature, mutant - wild type (higher = more stable)": -0.3, "heat capacity change of unfolding": 1.27, "unfolding enthalpy (calorimetric)": 98.2},
      {"variant": "MKALIVLGLVLLSVTVQGKVFERCELARTLKRLGMDGYRGISLANWMCLAKWESGYNTRATNYNAGDRSTDYGIFQINSRYWCNDGKTPGASNACHLSCSALLQDNIADAVACAKRVVRDPQGIRAWVAWRNRCQNRDVRQYVQGCGV", "Tm": "63.7 °C and 64.9 °C", "change of melting temperature, mutant - wild type (higher = more stable)": -1.2, "heat capacity change of unfolding": 1.22, "unfolding enthalpy (calorimetric)": 108},
      {"variant": "MKALIVLGLVLLSVTVQGKVFERCELARTLKRLGMDGYRGISLANWMCLAKWESGYNTRATNYNAGDRSTDYGIFQINSRYWCNDGKTPGAVNACHLSCSALLQDNIADAVACAKRVFRDPQGIRAWVAWRNRCQNRDVRQYVQGCGV", "change of melting temperature, mutant - wild type (higher = more stable)": -6.5, "heat capacity change of unfolding": 0.93, "unfolding enthalpy (calorimetric)": 87.2},
      {"variant": "MKALIVLGLVLLSVTVQGKVFERCELARTLKRLGMDGYRGISLALWMCLAKWESGYNTRATNYNAGDRSTDYGIFQINSRYWCNDGKTPGAVNACHLSCSALLQDNIADAVACAKRVVRDPQGIRAWVAWRNRCQNRDVRQYVQGCGV", "Tm": "65.3 °C", "change of melting temperature, mutant - wild type (higher = more stable)": 0.4}
    ]},
    {"variants_of": "B1", "details": "Homo sapiens; pH 2.78; Thermal; DSC; glycine 0.05 M; reversible: yes; structure 1LZ1; whole UniProt chain shown", "units": {"Tm": "°C", "unfolding enthalpy (calorimetric)": "kcal/mol", "unfolding enthalpy (van 't Hoff)": "kcal/mol"}, "values": [
      {"variant": "MKALIVLGLVLLSVTVQGKVFERCELARTLKRLGMDGYRGISLANWMCLAKWESGYNTRATNYNAGDRSTDYGIFGINSRYWCNDGKTPGAVNACHLSCSALLQDNIADAVACAKRVVRDPQGIRAWVAWRNRCQNRDVRQYVQGCGV", "Tm": 72.5, "unfolding enthalpy (calorimetric)": 119, "unfolding enthalpy (van 't Hoff)": 127}
    ]},
    {"variants_of": "B1", "details": "Homo sapiens; pH 3.15; Thermal; DSC; glycine 0.05 M; reversible: yes; structure 1LZ1; whole UniProt chain shown", "units": {"Tm": "°C", "unfolding enthalpy (calorimetric)": "kcal/mol", "unfolding enthalpy (van 't Hoff)": "kcal/mol"}, "values": [
      {"variant": "MKALIVLGLVLLSVTVQGKVFERCELARTLKRLGMDGYRGISLANWMCLAKWESGYNTRATNYNAGDRSTDYGIFGINSRYWCNDGKTPGAVNACHLSCSALLQDNIADAVACAKRVVRDPQGIRAWVAWRNRCQNRDVRQYVQGCGV", "Tm": 78.7, "unfolding enthalpy (calorimetric)": 127, "unfolding enthalpy (van 't Hoff)": 135}
    ]},
    {"variants_of": "B1", "details": "Homo sapiens; pH 2.61; Thermal; DSC; glycine 0.05 M; reversible: yes; structure 1LZ1; whole UniProt chain shown", "units": {"Tm": "°C", "unfolding enthalpy (calorimetric)": "kcal/mol", "unfolding enthalpy (van 't Hoff)": "kcal/mol"}, "values": [
      {"variant": "MKALIVLGLVLLSVTVQGKVFERCELARTLKRLGMDGYRGISLANWMCLLKWESGYNTRATNYNAGDRSTDYGIFQINSRYWCNDGKTPGAVNACHLSCSALLQDNIADAVACAKRVVRDPQGIRAWVAWRNRCQNRDVRQYVQGCGV", "Tm": 63.1, "unfolding enthalpy (calorimetric)": 94.9, "unfolding enthalpy (van 't Hoff)": 97.8},
      {"variant": "MKALIVLGLVLLSVTVQGKVFERCELARTLKRLGMDGYRGISLANWMCLAKWESGYNTRATNYNAGDRSTDYGIFQINSRYWCNDGKTPGASNACHLSCSALLQDNIADAVACAKRVVRDPQGIRAWVAWRNRCQNRDVRQYVQGCGV", "Tm": 62.1, "unfolding enthalpy (calorimetric)": 105, "unfolding enthalpy (van 't Hoff)": 110}
    ]},
    {"variants_of": "B1", "details": "Homo sapiens; pH 2.83; Thermal; DSC; glycine 0.05 M; reversible: yes; structure 1LZ1; whole UniProt chain shown", "units": {"Tm": "°C", "unfolding enthalpy (calorimetric)": "kcal/mol", "unfolding enthalpy (van 't Hoff)": "kcal/mol"}, "values": [
      {"variant": "MKALIVLGLVLLSVTVQGKVFERCELARTLKRLGMDGYRGISLANWMCLLKWESGYNTRATNYNAGDRSTDYGIFQINSRYWCNDGKTPGAVNACHLSCSALLQDNIADAVACAKRVVRDPQGIRAWVAWRNRCQNRDVRQYVQGCGV", "Tm": 66.9, "unfolding enthalpy (calorimetric)": 102, "unfolding enthalpy (van 't Hoff)": 104},
      {"variant": "MKALIVLGLVLLSVTVQGKVFERCELARTLKRLGMDGYRGISLANWMCLAKWESGYNTRATNYNAGDRSTDYGIFQINSRYWCNDGKTPGASNACHLSCSALLQDNIADAVACAKRVVRDPQGIRAWVAWRNRCQNRDVRQYVQGCGV", "Tm": 66, "unfolding enthalpy (calorimetric)": 109, "unfolding enthalpy (van 't Hoff)": 115},
      {"variant": "MKALIVLGLVLLSVTVQGKVFERCELARTLKRLGMDGYRGISLANWMCLAKWESGYNTRATNYNAGDRSTDYGIFQINSRYWCNDGKTPGAVNACHLSCSALLQDNIADAVACAKRVFRDPQGIRAWVAWRNRCQNRDVRQYVQGCGV", "Tm": 61, "unfolding enthalpy (calorimetric)": 84.6, "unfolding enthalpy (van 't Hoff)": 92}
    ]},
    {"variants_of": "B1", "details": "Homo sapiens; pH 3.23; Thermal; DSC; glycine 0.05 M; reversible: yes; structure 1LZ1; whole UniProt chain shown", "units": {"Tm": "°C", "unfolding enthalpy (calorimetric)": "kcal/mol", "unfolding enthalpy (van 't Hoff)": "kcal/mol"}, "values": [
      {"variant": "MKALIVLGLVLLSVTVQGKVFERCELARTLKRLGMDGYRGISLANWMCLLKWESGYNTRATNYNAGDRSTDYGIFQINSRYWCNDGKTPGAVNACHLSCSALLQDNIADAVACAKRVVRDPQGIRAWVAWRNRCQNRDVRQYVQGCGV", "Tm": 73.2, "unfolding enthalpy (calorimetric)": 108, "unfolding enthalpy (van 't Hoff)": 111}
    ]},
    {"variants_of": "B1", "details": "Homo sapiens; pH 3.28; Thermal; DSC; glycine 0.05 M; reversible: yes; structure 1LZ1; whole UniProt chain shown", "units": {"Tm": "°C", "unfolding enthalpy (calorimetric)": "kcal/mol", "unfolding enthalpy (van 't Hoff)": "kcal/mol"}, "values": [
      {"variant": "MKALIVLGLVLLSVTVQGKVFERCELARTLKRLGMDGYRGISLANWMCLAKWESGYNTRATNYNAGDRSTDYGIFQINSRYWCNDGKTPGASNACHLSCSALLQDNIADAVACAKRVVRDPQGIRAWVAWRNRCQNRDVRQYVQGCGV", "Tm": 72.2, "unfolding enthalpy (calorimetric)": 117, "unfolding enthalpy (van 't Hoff)": 122}
    ]},
    {"variants_of": "B1", "details": "Homo sapiens; pH 2.62; Thermal; DSC; glycine 0.05 M; reversible: yes; structure 1LZ1; whole UniProt chain shown", "units": {"Tm": "°C", "unfolding enthalpy (calorimetric)": "kcal/mol", "unfolding enthalpy (van 't Hoff)": "kcal/mol"}, "values": [
      {"variant": "MKALIVLGLVLLSVTVQGKVFERCELARTLKRLGMDGYRGISLANWMCLAKWESGYNTRATNYNAGDRSTDYGIFQINSRYWCNDGKTPGAVNACHLSCSALLQDNIADAVACAKRVFRDPQGIRAWVAWRNRCQNRDVRQYVQGCGV", "Tm": 56.8, "unfolding enthalpy (calorimetric)": 79.1, "unfolding enthalpy (van 't Hoff)": 85.1}
    ]},
    {"variants_of": "B1", "details": "Homo sapiens; pH 3.26; Thermal; DSC; glycine 0.05 M; reversible: yes; structure 1LZ1; whole UniProt chain shown", "units": {"Tm": "°C", "unfolding enthalpy (calorimetric)": "kcal/mol", "unfolding enthalpy (van 't Hoff)": "kcal/mol"}, "values": [
      {"variant": "MKALIVLGLVLLSVTVQGKVFERCELARTLKRLGMDGYRGISLANWMCLAKWESGYNTRATNYNAGDRSTDYGIFQINSRYWCNDGKTPGAVNACHLSCSALLQDNIADAVACAKRVFRDPQGIRAWVAWRNRCQNRDVRQYVQGCGV", "Tm": 67.6, "unfolding enthalpy (calorimetric)": 89.4, "unfolding enthalpy (van 't Hoff)": 95.4}
    ]}
  ]
}
